Results reported in the supplement of paper PMC7125110.
± gives the standard error. For some assays here: Fewer inactive variants are shown than the library holds.

B1: glmS ribozyme (parent)
chain: AUAAAAGCGCCAGAACUACAGAAAUGUAGUUGACGAGGAGGAGGUUUAUCGAAUUUUCGGCGGAUGCCUCCAAA

How the values were obtained:
Conditions in all cases: with glucosamine-6-phosphate
glucosamine-6-phosphate [1] = variants of: B1; test: kcat; higher = faster cleavage; RNA array
Method in brief: (§1)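 kobs was derived by fitting per-tile medians to one- or two-exponential decays after normalising signals to baseline and to non-cleaving reference variants. Those signals came from barcoded ribozyme variants transcribed in situ by E. coli RNA polymerase on sequenced MiSeq chips, followed through a hybridised Cy3 probe at 37 °C and imaged over ~14 h. Glucosamine-6-phosphate (40 μM to 10 mM) in HEPES/KCl/Mg(OAc)2 buffer was flowed in. Weighted Michaelis–Menten fits across concentrations then gave kcat and KM.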

glucosamine-6-phosphate [2] = variants of: B1; test: KM; higher = weaker cofactor use; RNA array
Method in brief: as §1

glucosamine-6-phosphate [3] = variants of: B1; test: self-cleavage kobs at 2500 uM GlcN6P; higher = faster cleavage; RNA array
Method in brief: as §1

glucosamine-6-phosphate [4] = variants of: B1; test: self-cleavage kobs at 10000 uM GlcN6P; higher = faster cleavage; RNA array
Method in brief: as §1

glucosamine-6-phosphate [5] = variants of: B1; test: self-cleavage kobs at 40 uM GlcN6P; higher = faster cleavage; RNA array
Method in brief: as §1

glucosamine-6-phosphate [6] = variants of: B1; test: self-cleavage kobs at 160 uM GlcN6P; higher = faster cleavage; RNA array
Method in brief: as §1

glucosamine-6-phosphate [7] = variants of: B1; test: self-cleavage kobs at 640 uM GlcN6P; higher = faster cleavage; RNA array
Method in brief: as §1

Variant | kcat (glucosamine-6-phosphate [1]) | KM (glucosamine-6-phosphate [2]) | self-cleavage kobs at 2500 uM GlcN6P (glucosamine-6-phosphate [3]) | self-cleavage kobs at 10000 uM GlcN6P (glucosamine-6-phosphate [4]) | self-cleavage kobs at 40 uM GlcN6P (glucosamine-6-phosphate [5]) | self-cleavage kobs at 160 uM GlcN6P (glucosamine-6-phosphate [6]) | self-cleavage kobs at 640 uM GlcN6P (glucosamine-6-phosphate [7])
A33U A42G | 0.000108 ± 7.3e-06 s⁻¹ | 2 ± 0.35 mM | 6.02e-05 ± 1.3e-05 s⁻¹ | 8.89e-05 ± 3e-05 s⁻¹ | – | – | –
A36U G66C | < 1e-05 s⁻¹ | – | – | – | < 1e-05 s⁻¹ | < 1e-05 s⁻¹ | –
A33G G60C | < 1e-05 s⁻¹ | – | – | – | – | < 1e-05 s⁻¹ | < 1e-05 s⁻¹
A36C U69C | 1.31e-05 ± 3.1e-06 s⁻¹ | – | < 1e-05 s⁻¹ | – | – | – | –
G32U C70G | 7.04e-05 ± 1e-05 s⁻¹ | – | 5.3e-05 ± 5.7e-06 s⁻¹ | 7.56e-05 ± 4.5e-06 s⁻¹ | – | – | 8.68e-05 ± 1.2e-05 s⁻¹
G32C U45G | 2.74e-05 ± 2.5e-06 s⁻¹ | 2.96 ± 1 mM | – | – | < 1e-05 s⁻¹ | < 1e-05 s⁻¹ | –
G32C A33G | < 1e-05 s⁻¹ | – | < 1e-05 s⁻¹ | – | < 1e-05 s⁻¹ | < 1e-05 s⁻¹ | –
G32U A42C G51C C67U | 1.49e-05 ± 6.1e-07 s⁻¹ | 3.62 ± 0.38 mM | – | – | – | – | –
G38C A52G | < 1e-05 s⁻¹ | 0.0309 ± 0.014 mM | < 1e-05 s⁻¹ | < 1e-05 s⁻¹ | – | < 1e-05 s⁻¹ | –
G32U A53C | 0.000282 ± 0.00012 s⁻¹ | – | 0.000105 ± 2.7e-05 s⁻¹ | 0.000275 ± 4.6e-05 s⁻¹ | – | – | 0.000104 ± 2.3e-05 s⁻¹
G32U A53U | 0.000907 ± 0.00012 s⁻¹ | 4.58 ± 0.95 mM | 0.000361 ± 2.5e-05 s⁻¹ | 0.000603 ± 3.5e-05 s⁻¹ | – | 1.91e-05 ± 5.9e-06 s⁻¹ | 0.000111 ± 6.5e-06 s⁻¹
G32U A53G | 0.00107 ± 0.00015 s⁻¹ | 3.39 ± 0.75 mM | 0.000375 ± 5.5e-05 s⁻¹ | 0.000847 ± 7.5e-05 s⁻¹ | – | 5.42e-05 ± 9e-06 s⁻¹ | 0.000174 ± 1.8e-05 s⁻¹
G32A G38U G59A U65A C70G | 1.63e-05 ± 2.9e-06 s⁻¹ | – | – | – | – | – | –
G37C U54A U69G | 3.07e-05 ± 5e-06 s⁻¹ | – | – | – | – | – | –
A33U U49A C58U | < 1e-05 s⁻¹ | – | – | – | < 1e-05 s⁻¹ | – | –
A33G U57G | 1.21e-05 ± 4.2e-06 s⁻¹ | – | – | < 1e-05 s⁻¹ | – | – | –
G32U G40A | 0.000344 ± 5e-05 s⁻¹ | 3.45 ± 0.95 mM | 0.000131 ± 1e-05 s⁻¹ | 0.000267 ± 1.9e-05 s⁻¹ | – | – | 6.33e-05 ± 6.7e-06 s⁻¹
G38A U54G | < 1e-05 s⁻¹ | – | – | – | < 1e-05 s⁻¹ | – | –
A36C G66U | < 1e-05 s⁻¹ | – | – | – | – | – | –
G37A C70U | 0.00286 ± 0.00083 s⁻¹ | 3.8 ± 1.5 mM | 0.0018 ± 0.00029 s⁻¹ | 0.00199 ± 0.00021 s⁻¹ | 4.27e-05 ± 6.4e-06 s⁻¹ | 9.55e-05 ± 1.5e-05 s⁻¹ | 0.000383 ± 4.9e-05 s⁻¹
G37A C70A | 1.38e-05 ± 4.2e-06 s⁻¹ | – | – | – | < 1e-05 s⁻¹ | – | –
A33G C67A | < 1e-05 s⁻¹ | – | – | < 1e-05 s⁻¹ | < 1e-05 s⁻¹ | – | –
A33G C67G | 1.67e-05 ± 4.8e-06 s⁻¹ | – | – | – | – | – | –
A33G C67U | 2.01e-05 ± 2.6e-06 s⁻¹ | 1.35 ± 0.42 mM | – | – | – | – | –
G38A A52C C70A | 1.15e-05 ± 3.5e-06 s⁻¹ | – | – | – | – | – | –

Variant | kcat (glucosamine-6-phosphate [1]) | KM (glucosamine-6-phosphate [2]) | self-cleavage kobs at 2500 uM GlcN6P (glucosamine-6-phosphate [3]) | self-cleavage kobs at 10000 uM GlcN6P (glucosamine-6-phosphate [4]) | self-cleavage kobs at 40 uM GlcN6P (glucosamine-6-phosphate [5]) | self-cleavage kobs at 160 uM GlcN6P (glucosamine-6-phosphate [6]) | self-cleavage kobs at 640 uM GlcN6P (glucosamine-6-phosphate [7])
A33C G37A | < 1e-05 s⁻¹ | – | – | – | < 1e-05 s⁻¹ | < 1e-05 s⁻¹ | –
G38A U49A C58U | 2.37e-05 ± 3.2e-06 s⁻¹ | 0.862 ± 0.38 mM | – | – | – | – | –
A33C C70U | 1.19e-05 ± 4.5e-06 s⁻¹ | – | – | – | – | – | –
G38A C71U | < 1e-05 s⁻¹ | – | – | – | – | – | –
A33C A42G | 0.00107 ± 0.0002 s⁻¹ | 5.24 ± 1.5 mM | 0.000266 ± 0.0001 s⁻¹ | 0.000716 ± 0.00011 s⁻¹ | – | – | 0.000127 ± 2e-05 s⁻¹
A36G G63U C70A | 1.84e-05 ± 7.8e-06 s⁻¹ | – | – | – | – | – | –
G37C A53U | 2.09e-05 ± 2.3e-06 s⁻¹ | – | 2.18e-05 ± 9.8e-06 s⁻¹ | 1.92e-05 ± 8.5e-06 s⁻¹ | < 1e-05 s⁻¹ | – | –
G37A G62A | < 1e-05 s⁻¹ | – | – | < 1e-05 s⁻¹ | < 1e-05 s⁻¹ | – | < 1e-05 s⁻¹
G32C C68U | 1.25e-05 ± 1.1e-06 s⁻¹ | 1.35 ± 0.62 mM | – | – | – | < 1e-05 s⁻¹ | –
G32C G51U | < 1e-05 s⁻¹ | – | – | – | – | – | –
G32C C58U | 3.33e-05 ± 5.5e-06 s⁻¹ | – | – | – | – | – | –
G32C C58A | 0.000602 ± 8.9e-05 s⁻¹ | 8.22 ± 1.7 mM | 0.000139 ± 1.7e-05 s⁻¹ | 0.000333 ± 4.8e-05 s⁻¹ | – | – | 4.35e-05 ± 8.2e-06 s⁻¹
C34U G35A C68U | 1.41e-05 ± 3.1e-06 s⁻¹ | – | – | – | – | – | –
A36C C58G | 2.16e-05 ± 5.9e-06 s⁻¹ | – | – | – | – | – | –
G37A G38U | < 1e-05 s⁻¹ | – | – | – | – | < 1e-05 s⁻¹ | –
G32A U54C | 0.00356 ± 0.0013 s⁻¹ | – | 0.00147 ± 0.00026 s⁻¹ | 0.0022 ± 0.00036 s⁻¹ | 3.45e-05 ± 1.1e-05 s⁻¹ | – | 0.000309 ± 6.5e-05 s⁻¹
G37C A42G | 7.11e-05 ± 9.9e-06 s⁻¹ | – | 4.76e-05 ± 1.3e-05 s⁻¹ | 5.87e-05 ± 1e-05 s⁻¹ | – | – | –
G37C U47G | 1.63e-05 ± 2.9e-06 s⁻¹ | – | – | – | – | – | –
A36G U45A | 3.07e-05 ± 8.9e-06 s⁻¹ | – | – | – | – | – | –
G37A G41A | 0.000353 ± 0.00012 s⁻¹ | – | 0.00016 ± 2.5e-05 s⁻¹ | 0.000229 ± 4.8e-05 s⁻¹ | – | 3.21e-05 ± 1.4e-05 s⁻¹ | 3.79e-05 ± 9.7e-06 s⁻¹
G37A G41C | 2.41e-05 ± 9.5e-06 s⁻¹ | – | 3.87e-05 ± 1.5e-05 s⁻¹ | – | – | – | –
G37A A53U C71U | 0.00135 ± 0.00053 s⁻¹ | – | 0.000695 ± 0.00015 s⁻¹ | 0.00165 ± 0.00033 s⁻¹ | 7.9e-05 ± 3.8e-05 s⁻¹ | – | 0.000464 ± 8.3e-05 s⁻¹
A33U A53U G66A | 7.62e-05 ± 1.7e-06 s⁻¹ | – | – | – | – | – | –
G38A G62U | < 1e-05 s⁻¹ | – | – | – | – | – | < 1e-05 s⁻¹
